B1: human Fas-TM (transmembrane domain peptide of human Fas, C178S) (peptide)
chain: RSNLGWLSLLLLPIPLIVWVKRKEVQKT
B2: mouse Fas-TM (transmembrane domain peptide of mouse Fas) (peptide)
chain: RNRLWLLTILVLLIPLVFIYRKYRKRKS

Biological target: the molecule itself
Assay: SDS-PAGE of bicelle-reconstituted peptide

Row | Protein | stoichiometry N
1 | B1 | 3
2 | B2 | 3

From PMC4761300 (Molecular cell, 2016)
